{"source": "paper PMC2586299", "about": "(Developmental cell, 2008)", "binders": {"B1": {"name": "VPS4A MIT domain (VPS4A residues 1−84) (domain or fragment, human, UniProt Q9UN37 1-84, looked up)", "chain": "MTTSTLQKAIDLVTKATEEDKAKNYEEALRLYQHAVEYFLHAIKYEAHSDKAKESIRAKCVQYLDRAEKLKDYLRSKEKHGKKP"}}, "key": {"[1]": {"target": "T1, full length GST-CHMP6_(1−201) (human, UniProt Q96FZ7 1-201)", "T1 sequence (looked up)": "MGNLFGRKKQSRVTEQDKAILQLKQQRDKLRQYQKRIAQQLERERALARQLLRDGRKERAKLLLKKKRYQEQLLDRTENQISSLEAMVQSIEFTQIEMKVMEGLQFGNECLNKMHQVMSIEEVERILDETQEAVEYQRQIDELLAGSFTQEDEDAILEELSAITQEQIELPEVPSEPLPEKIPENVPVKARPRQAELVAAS", "experiment": "SPR"}, "[2]": {"target": "T2, GST-CHMP6 without the final 20 residues (human, UniProt Q96FZ7 1-181)", "T2 sequence (looked up)": "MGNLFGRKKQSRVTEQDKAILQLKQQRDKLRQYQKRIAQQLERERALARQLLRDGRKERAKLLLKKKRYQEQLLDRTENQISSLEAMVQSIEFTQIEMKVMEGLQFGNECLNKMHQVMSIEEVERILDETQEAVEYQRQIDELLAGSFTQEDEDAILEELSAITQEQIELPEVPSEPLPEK", "experiment": "SPR"}, "CHMP6 MIM2 L178D (human)": {"target": "CHMP6 MIM2 L178D (human)", "experiment": "SPR"}, "[3]": {"target": "B1", "experiment": "SPR"}, "VPS4A MIT_(L64D)": {"target": "T3, VPS4A MIT_(L64D) (human, UniProt Q9UN37 1-84, L64D)", "T3 sequence (looked up)": "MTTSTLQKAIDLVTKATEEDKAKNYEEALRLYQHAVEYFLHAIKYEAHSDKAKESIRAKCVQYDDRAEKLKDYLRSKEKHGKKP", "experiment": "SPR"}, "[4]": {"target": "B1", "experiment": "NMR solution structure"}, "[5]": {"target": "T4, GST-CHMP6 (construct of the VPS4B measurement not stated) (human, UniProt Q96FZ7 1-201)", "T4 sequence (looked up)": "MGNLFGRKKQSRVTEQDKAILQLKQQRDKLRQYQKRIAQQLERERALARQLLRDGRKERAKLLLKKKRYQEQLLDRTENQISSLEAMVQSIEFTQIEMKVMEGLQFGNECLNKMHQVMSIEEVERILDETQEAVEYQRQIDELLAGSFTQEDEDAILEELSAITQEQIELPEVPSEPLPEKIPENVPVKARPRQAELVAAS", "experiment": "SPR"}}, "data": [{"binder": "B1", "values": [{"measurement": "Kd", "setting": "[1]", "value": "33 ± 7", "unit": "µM"}, {"measurement": "Kd", "setting": "[2]", "value": "23.2 ± 0.2", "unit": "µM"}, {"measurement": "Kd", "setting": "CHMP6 MIM2 L178D (human)", "value": 44.4, "unit": "µM"}]}, {"binder": "LPEVPSEPLPEK (domain or fragment, human, UniProt Q96FZ7 170-181, looked up)", "note": "[GST-CHMP6_(170−181) minimal fragment]", "values": [{"measurement": "Kd", "setting": "[3]", "value": "8 ± 0.1", "unit": "µM"}]}, {"binder": "QEQIELPEVPSEPLPEK (domain or fragment, human, UniProt Q96FZ7 165-181, looked up)", "note": "[GST-CHMP6_(165−181) fragment]", "values": [{"measurement": "Kd", "setting": "[3]", "value": "5.8 ± 0.8", "unit": "µM"}, {"measurement": "Kd", "setting": "VPS4A MIT_(L64D)", "value": "26.1 ± 0.8", "unit": "µM"}]}, {"binder": "EQIELPEVPSEPLPEK (peptide, UniProt Q96FZ7 166-181, looked up)", "note": "[CHMP6_(166−181) MIM2 peptide]", "values": [{"measurement": "binding result", "setting": "[4]", "value": "binds"}]}, {"binder": "VPS4B MIT domain (domain or fragment, human, UniProt O75351 4-82, looked up) TSPNLQKAIDLASKAAQEDKAGNYEEALQLYQHAVQYFLHVVKYEAQGDKAKQSIRAKCTEYLDRAEKLKEYLKNKEKK", "values": [{"measurement": "Kd", "setting": "[5]", "value": "786 ± 6", "unit": "µM"}]}]}
